# Data as given in patent US20250313627A1 (FUSE BIOTHERAPEUTICS, published 2025).
# B1: FUSE-211 (bispecific antibody, human IgG1, lambda, L234A L235A)
# chain: QVQLQESGGGSVPAGGSLRLSCAASGSTYSANCMGWFRQAPGKEREEVASMSIRSGRTYYSDSVKGRFTISQDGSKNTLYLQLNSLKAEDTALYYCAAAYGGSRCVYNYRGQGTQVTVSSGGGGSGGGGSGGGGSQVQLQESGGGSVPAGGSLRLSCAASGSTYSANCMGWFRQAPGKEREEVASMSIRSGRTYYSDSVKGRFTISQDGSKNTLYLQLNSLKAEDTALYYCAAAYGGSRCVYNYRGQGTQVTVSSEPKSSDKTHTCPPCPAPEAAGGPSVFLFPPKPKDTLMISRTPEVTCVVVDVSHEDPEVKFNWYVDGVEVHNAKTKPREEQYNSTYRVVSVLTVLHQDWLNGKEYKCKVSNKALPAPIEKTISKAKGQPREPQVYTLPPSREEMTKNQVSLSCAVKGFYPSDIAVEWESNGQPENNYKTTPPVLDSDGSFFLVSKLTVDKSRWQQGNVFSCSVMHEALHNRFTQKSLSLSPGK
# heavy: EVQLVESGGGLVQPGGSLRLSCAASGFTFSTYAMNWVRQAPGKGLEWVARIRSKYNNYATYYADSVKDRFTISRDDSKNTLYLQMNSLRAEDTAVYYCARHGNFGNSYVSWFAYWGQGTMVTVSSASTKGPSVFPLAPSSKSTSGGTAALGCLVKDYFPEPVTVSWNSGALTSGVHTFPAVLQSSGLYSLSSVVTVPSSSLGTQTYICNVNHKPSNTKVDKKVEPKSCDKTHTCPPCPAPEAAGGPSVFLFPPKPKDTLMISRTPEVTCVVVDVSHEDPEVKFNWYVDGVEVHNAKTKPREEQYNSTYRVVSVLTVLHQDWLNGKEYKCKVSNKALPAPIEKTISKAKGQPREPQVYTLPPSREEMTKNQVSLWCLVKGFYPSDIAVEWESNGQPENNYKTTPPVLDSDGSFFLYSKLTVDKSRWQQGNVFSCSVMHEALHNHYTQKSLSLSPGK
# light: QAVVTQEPSLTVSPGGTVTLTCRSSTGAVTTSNYANWVQQKPGQAPRGLIGGTNKRAPGTPARFSGSLLGGKAALTLSGVQPEDEAEYYCALWYSNLWVFGGGTKLTVLGQPKAAPSVTLFPPSSEELQANKATLVCLISDFYPGAVTVAWKADSSPVKAGVETTTPSKQSNNKYAASSYLSLTPEQWKSHRSYSCQVTHEGSTVEKTVAPTECS
# notes: Hole chain: 2A11-linker-2A11-Fc; knob chain: anti-CD3 Fab heavy chain-Fc; anti-CD3 light chain; also called format 11A incorporating 2A11
# Key:
# [1] = target: T1, recombinant His tagged human ROR1 (human, UniProt Q01973 30-403, limits assumed); experiment: BLI (Octet), FUSE protein loaded on the biosensor, His tagged ROR1 in solution; column 'kdis(1/s)'
# T1 construct: Analyte in the BLI assay; also called Human ROR1-His; recombinant ROR1
# T1 sequence (Q01973 30-403 limits assumed): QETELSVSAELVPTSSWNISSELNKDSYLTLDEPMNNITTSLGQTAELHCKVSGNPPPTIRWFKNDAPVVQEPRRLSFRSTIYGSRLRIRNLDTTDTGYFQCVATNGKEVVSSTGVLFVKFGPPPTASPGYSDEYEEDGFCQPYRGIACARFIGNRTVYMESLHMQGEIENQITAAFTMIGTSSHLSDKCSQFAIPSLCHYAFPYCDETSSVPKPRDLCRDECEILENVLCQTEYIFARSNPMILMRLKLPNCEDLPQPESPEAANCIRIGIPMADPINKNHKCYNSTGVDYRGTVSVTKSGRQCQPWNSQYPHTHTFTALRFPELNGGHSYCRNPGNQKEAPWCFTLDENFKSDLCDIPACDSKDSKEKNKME
# Procedure: (§1) As shown in FIGS. 5A-5D, the binding affinities (KD) of TCEs for ROR1 were assessed. We examined the magnitude by which several TCEs and mutants thereof bind to recombinant ROR1. Kinetic binding graphs were generated via Bio-Layer Interferometry (BLI) using an Octet system. For each TCE, the biosensor tips were coated with FUSE proteins at 15 μg/ml and probed with either recombinant His tagged ROR1 at concentrations ranging from 100 pM to 10 μM. […] The binding affinity (KD), on rate (k-on) and off rate (k-dis), are summarized for ROR1 in FIG. 5D.
# (§2) Antibodies were prepared in 1×PBS with 0.02% Tween-20 with the final concentration of 15 ug/ml. Human ROR1-His or CD3e-His protein were also prepared, and serial diluted (4-fold dilution ranging from 400 nM to 0.098 nM) in 1×PBS with 0.02% Tween-20. The biosensors were pre-moistened in 200 uL of 1×PBS with 0.02% Tween-20 for 10 minutes. Meanwhile, Octet BLI system (ForteBio) was prewarmed for 30 minutes and the flow rate was set to 1000 rpm. The biosensors (Anti-hIgG Fc Capture biosensor) were soaked in 250 uL of 1×PBS with 0.02% Tween-20 for 60 seconds at 30° C. to get an initial baseline reading. After the 60-second baseline reading, the biosensors were exposed to testing antibody for 300 seconds at 30° C. for the association between antibody and the biosensors (coupling antibody with biosensor). The biosensors with antibody were then exposed to human ROR1 or CD3e in 250 uL of 1×PBS with 0.02% Tween-20 at 30° C. for 300 seconds for the association reaction between antibody and human ROR1 or CD3e (association curve). After 300-second association reaction between antibody and antigen, the biosensors with antibody and antigen were then exposed to 250 uL of 1×PBS with 0.02% Tween-20 at 30° C. for 300 seconds for the dissociation reaction between antibody and […]. The binding affinity was calculated by the built-in data fitting algorithm.
# [2] = target: T2, human ROR1 (Receptor Tyrosine Kinase-Like Orphan Receptor 1) on the cell surface (human, UniProt Q01973 30-937); experiment: flow cytometry on MDA-MB-231 ROR1 low cells (about 17,000 ROR1 per cell), secondary antibody to the IgG1 Fc
# T2 construct: whole, on cells; engineered into B16-F10 (high density) and LS174T (low density) cells; also called B16-F10-ROR1-H; LS174T-ROR1-L
# T2 sequence (Q01973 30-937): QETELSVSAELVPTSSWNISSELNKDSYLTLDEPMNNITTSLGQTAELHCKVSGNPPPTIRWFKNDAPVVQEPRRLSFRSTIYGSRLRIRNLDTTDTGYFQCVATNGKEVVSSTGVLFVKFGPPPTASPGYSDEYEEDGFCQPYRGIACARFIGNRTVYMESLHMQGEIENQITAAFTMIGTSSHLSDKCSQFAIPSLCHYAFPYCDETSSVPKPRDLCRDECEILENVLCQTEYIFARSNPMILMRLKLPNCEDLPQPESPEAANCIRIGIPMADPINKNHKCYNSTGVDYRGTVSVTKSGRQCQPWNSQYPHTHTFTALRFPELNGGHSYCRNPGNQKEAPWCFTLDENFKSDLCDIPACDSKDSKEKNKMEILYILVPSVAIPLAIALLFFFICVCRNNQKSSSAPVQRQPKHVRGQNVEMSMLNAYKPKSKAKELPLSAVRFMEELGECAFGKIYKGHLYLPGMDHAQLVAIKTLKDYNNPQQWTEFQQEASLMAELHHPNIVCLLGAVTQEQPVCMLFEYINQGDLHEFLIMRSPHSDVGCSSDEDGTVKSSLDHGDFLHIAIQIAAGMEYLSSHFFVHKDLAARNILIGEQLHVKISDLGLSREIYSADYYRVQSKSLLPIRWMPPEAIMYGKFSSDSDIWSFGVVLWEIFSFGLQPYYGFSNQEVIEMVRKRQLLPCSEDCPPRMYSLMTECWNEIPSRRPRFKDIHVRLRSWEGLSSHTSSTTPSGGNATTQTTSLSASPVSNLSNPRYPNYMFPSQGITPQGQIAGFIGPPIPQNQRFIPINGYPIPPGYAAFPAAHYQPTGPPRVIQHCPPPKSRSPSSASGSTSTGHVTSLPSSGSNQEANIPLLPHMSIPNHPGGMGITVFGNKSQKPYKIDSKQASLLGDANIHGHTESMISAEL
# Procedure: (§3) Binding of 2A11 (black line), 5A1 (dark grey line) and VHH8 (medium grey line) were tested in TCE format 12A. The commercial ROR1 specific Ab reported to bind the ROR1-Ig domain 2A2 (light grey line), served as the positive control and anti-HEL (dotted black line) served as the negative control. To better visualize binding of each test article to the three cells lines, we plotted MFI on the y-axis for each test article for HEK-293 cells (negative control; FIG. 4I), HEK-293 cells transfected with full length human ROR1 (FIG. 4J) and HEK-293 cells transfected with the ROR1 Ig domain linked to the cell surface via the GPI linker from CD59 (FIG. 4K).
# (§4) Adherent target cells were collected by brief TrypLE treatment while suspension cells were directly collected. Collected cells were washed once with PBS by centrifugation at 500×g for 5 minutes at room temperature and added to V-bottom 96-well plate (200,000-300,000 cells per well). To prepared Live/Dead fixable red, one vial of powder was dissolved into 50 uL of DMSO to make stock solution and then diluted 1 uL of stock Live/Dead fixable red in 1 mL of PBS to prepare the working solution. 100 uL of Live/Dead fixable red working buffer was then added to the cell in the V-bottom 96-well plate (200,000-300,000 cells per well) and incubated for 15 minutes at room temperature. After the 15-minute incubation, the cells were washed twice with PBS by centrifugation at 500 g for 5 minutes at room temperature. The cells were then cultured with antibodies at different concentrations in 100 uL of Biolegend staining buffer at 4° C. for 45 minutes. After the 45-minute incubation with primary antibody, the cells were washed with PBS by centrifugation at 500 g for 5 minutes at room temperature. The cells were then cultured with PE-Cy7-conjugated mouse-anti-human IgG secondary antibody in Biolegend staining buffer at 4° C. for 45 minutes. […] The samples were then analyzed on Cytek flow cytometer.
# [3] = target: T2, human ROR1 (Receptor Tyrosine …); experiment: flow cytometry on MDA-MB-231 ROR1 normal cells (about 35,000 ROR1 per cell), secondary antibody to the IgG1 Fc
# Procedure: as §3, §4
# [4] = target: T2, human ROR1 (Receptor Tyrosine …); experiment: flow cytometry on MDA-MB-231 ROR1 super high cells (about 2,000,000 ROR1 per cell), secondary antibody to the IgG1 Fc
# Procedure: as §3, §4
# [5] = target: T2, human ROR1 (Receptor Tyrosine …); experiment: flow cytometry on MDA-MB-231 ROR1 high cells (about 500,000 ROR1 per cell), secondary antibody to the IgG1 Fc
# Procedure: as §3, §4
# [6] = target: T1, recombinant His tagged human ROR1; experiment: BLI (Octet), FUSE protein loaded on the biosensor, His tagged ROR1 in solution
# Procedure: as §1, §2
binder,measurement,setting,value
B1,koff,[1],0.00229 s⁻¹
same,EC50,[2],400 pM
same,EC50,[3],450 pM
same,EC50,[4],190 pM
same,EC50,[5],550 pM
same,Kd,[6],17000 pM
same,kon,[6],135000 M⁻¹ s⁻¹
